The subject of this data set is Escherichia coli TOP10. Nature of the data set: shrunken log2 fold change of peptide-encoding DNA abundance (4.5 h post-induction vs induction); higher = less antimicrobial activity (less host growth inhibition). To be noted: time post-induction: 4.5 h; library: site-saturation at positions 5, 18, 19, 20.
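Note: peptides expressed intracellularly from a pBAD plasmid library in pooled LB shake-flask culture, induced with 0.3% L-arabinose, DNA abundance read by NGS, three biological replicates, DESeq2 with apeglm shrinkage.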

RRIRCRPPRLPRPRPRPSLVPRP: the “shrunken log2 fold change” value was -0.399.
The value for RRIRFRPPRLPRPRPRPTVNPRP was 2.04; that for RRIRGRPPRLPRPRPRPWPSPRP was 0.258.
Take RRIRRRPPRLPRPRPRPGSLPRP: the “shrunken log2 fold change” value was -0.00238.
Under RRIRGRPPRLPRPRPRPFVKPRP stands -0.419; under RRIRIRPPRLPRPRPRPKSLPRP, 0.0615; under RRIRKRPPRLPRPRPRPIRIPRP, -0.0265.
The value for RRIRDRPPRLPRPRPRPAEEPRP was 0.168.
Under RRIRFRPPRLPRPRPRPEACPRP stands -0.0833; under RRIRIRPPRLPRPRPRPYVMPRP, -0.274.
As for RRIRIRPPRLPRPRPRPSSAPRP, the “shrunken log2 fold change” value is -0.666.
The value for RRIRQRPPRLPRPRPRPMCFPRP was -0.352.
Consider RRIRLRPPRLPRPRPRPHEVPRP, for which the “shrunken log2 fold change” value is -0.0201.
Under RRIRNRPPRLPRPRPRPWGCPRP stands -0.00572.
Under RRIRKRPPRLPRPRPRPRPSPRP stands 0.585.
For the sequence RRIRGRPPRLPRPRPRPHVWPRP, the “shrunken log2 fold change” value was 0.201.
Under RRIRVRPPRLPRPRPRPVWEPRP stands 0.0761; under RRIRHRPPRLPRPRPRPLQDPRP, -0.0821; under RRIRARPPRLPRPRPRPQDKPRP, -0.132.
On to RRIRDRPPRLPRPRPRPHPDPRP, for which the “shrunken log2 fold change” value is -0.116.
Under RRIRVRPPRLPRPRPRPKYPPRP stands -0.188.
Consider RRIRPRPPRLPRPRPRPPQDPRP, for which the “shrunken log2 fold change” value was determined as 0.523.
As for RRIRIRPPRLPRPRPRPSPWPRP, the “shrunken log2 fold change” value was -0.34.
Take RRIRFRPPRLPRPRPRPMQTPRP: the “shrunken log2 fold change” value is -0.101.
The value for RRIRCRPPRLPRPRPRPTVDPRP was 0.337; that for RRIRARPPRLPRPRPRPHISPRP was -0.278.
Take RRIRERPPRLPRPRPRPGSIPRP: the “shrunken log2 fold change” value came out at 0.0371.
Regarding RRIRCRPPRLPRPRPRPMDNPRP, the “shrunken log2 fold change” value was -0.411.
The value for RRIRKRPPRLPRPRPRPLIYPRP was -0.213.
Under RRIRDRPPRLPRPRPRPSFVPRP stands -0.0915; under RRIRVRPPRLPRPRPRPCQLPRP, -0.202.
Turning to RRIRQRPPRLPRPRPRPRYWPRP, the “shrunken log2 fold change” value was -0.0336.
Under RRIRKRPPRLPRPRPRPKRYPRP stands 0.032.
The value for RRIRGRPPRLPRPRPRPMQQPRP was 2.08; that for RRIRWRPPRLPRPRPRPCTIPRP was -0.138.
As for RRIRWRPPRLPRPRPRPKRIPRP, the “shrunken log2 fold change” value was 0.364.
As for RRIRDRPPRLPRPRPRPVLGPRP, the “shrunken log2 fold change” value worked out at 0.162.
The value for RRIRKRPPRLPRPRPRPDYIPRP was -0.0117.
Under RRIRARPPRLPRPRPRPLKPPRP stands 0.464.
Regarding RRIRPRPPRLPRPRPRPFWAPRP, the “shrunken log2 fold change” value is 0.0614.
The value for RRIRWRPPRLPRPRPRPHTEPRP was -0.0123; that for RRIRMRPPRLPRPRPRPKWAPRP was 0.0251; that for RRIRLRPPRLPRPRPRPRTPPRP was 0.376.
In the case of RRIRCRPPRLPRPRPRPRCLPRP, the “shrunken log2 fold change” value is -0.32.
The value for RRIRARPPRLPRPRPRPQRHPRP was 0.212.
For RRIRIRPPRLPRPRPRPAICPRP, the “shrunken log2 fold change” value was -0.15.
Consider RRIRHRPPRLPRPRPRPHNDPRP, for which the “shrunken log2 fold change” value is -0.329.
In the case of RRIRVRPPRLPRPRPRPNWCPRP, the “shrunken log2 fold change” value is -0.00931.
The value for RRIRQRPPRLPRPRPRPLAQPRP was 0.233.
In the case of RRIRHRPPRLPRPRPRPANGPRP, the “shrunken log2 fold change” value was -0.0837.
Regarding RRIRYRPPRLPRPRPRPTLHPRP, the “shrunken log2 fold change” value is -0.749.
As to RRIRIRPPRLPRPRPRPDAHPRP, the “shrunken log2 fold change” value is -0.136.
Turning to RRIRYRPPRLPRPRPRPIHIPRP, the “shrunken log2 fold change” value is -0.0433.
Take RRIRDRPPRLPRPRPRPTAVPRP: the “shrunken log2 fold change” value is 0.421.
Under RRIRMRPPRLPRPRPRPAKWPRP stands 0.708; under RRIRKRPPRLPRPRPRPKMAPRP, 0.169; under RRIRFRPPRLPRPRPRPQKMPRP, -0.221.
RRIRPRPPRLPRPRPRPKDEPRP: the “shrunken log2 fold change” value is 0.363.
The value for RRIRTRPPRLPRPRPRPSTHPRP was -0.575; that for RRIRIRPPRLPRPRPRPWFVPRP was -0.578.
Under RRIRQRPPRLPRPRPRPSPNPRP stands 0.16; under RRIRVRPPRLPRPRPRPNWIPRP, -0.29; under RRIRSRPPRLPRPRPRPTKPPRP, 0.196.
The value for RRIRTRPPRLPRPRPRPRLTPRP was -0.00933; that for RRIRFRPPRLPRPRPRPTCYPRP was -0.23.
Consider RRIRSRPPRLPRPRPRPLTQPRP, for which the “shrunken log2 fold change” value was determined as 0.243.
Under RRIRFRPPRLPRPRPRPTHQPRP stands 2.65; under RRIRQRPPRLPRPRPRPNPCPRP, -0.349.
For RRIRVRPPRLPRPRPRPHERPRP, the “shrunken log2 fold change” value was -0.13.
Under RRIRMRPPRLPRPRPRPYDVPRP stands -0.562; under RRIRQRPPRLPRPRPRPMTHPRP, -0.466.
The value for RRIRRRPPRLPRPRPRPMPYPRP was -0.0473; that for RRIRHRPPRLPRPRPRPFTEPRP was 0.00246.
Under RRIRLRPPRLPRPRPRPPQKPRP stands 0.131; under RRIRRRPPRLPRPRPRPEFLPRP, 0.441.
Turning to RRIRGRPPRLPRPRPRPMALPRP, the “shrunken log2 fold change” value was -0.0079.
In the case of RRIRLRPPRLPRPRPRPLMFPRP, the “shrunken log2 fold change” value is -0.215.
Under RRIRWRPPRLPRPRPRPIWRPRP stands 0.628; under RRIRHRPPRLPRPRPRPEKAPRP, -0.0238; under RRIRVRPPRLPRPRPRPEACPRP, 0.11.
Under RRIRSRPPRLPRPRPRPNDWPRP stands 0.179.
Turning to RRIRCRPPRLPRPRPRPNMYPRP, the “shrunken log2 fold change” value was -0.916.
In the case of RRIRQRPPRLPRPRPRPDPWPRP, the “shrunken log2 fold change” value came out at 0.161.
The value for RRIRKRPPRLPRPRPRPDGPPRP was 0.022; that for RRIRLRPPRLPRPRPRPKVWPRP was 0.0698; that for RRIRWRPPRLPRPRPRPHVIPRP was -0.13.
Under RRIRSRPPRLPRPRPRPRHFPRP stands 0.141.
RRIRKRPPRLPRPRPRPADFPRP: the “shrunken log2 fold change” value was 0.344.
The value for RRIRNRPPRLPRPRPRPKTTPRP was 0.118.
RRIRNRPPRLPRPRPRPWWSPRP: the “shrunken log2 fold change” value was 0.0428.
The value for RRIRHRPPRLPRPRPRPHFQPRP was 0.0598.

(Values after the supplement of paper PMC9112550, “Optimization of the antimicrobial peptide Bac7 by deep mutational scanning” (BMC Biology, 2022).)
